The target in experiment [1] is major histocompatibility complex class II of H-2^d (A^d) on macrophages of Balb/c mice (mouse (endogenous in Balb/c peritoneal macrophages)). Put plainly: flow cytometry on cells; as a1, but L. donovani infected macrophages (I-MΦ) of Balb/c mice. On the technique in general: Flow cytometry measures light scatter and fluorescence of single cells or particles in a stream.

For experiment [2] the target is unchanged.

“LACK_(156-173) peptide (amino acid residues 156–173 of LACK protein, Leishmania homolog of receptors for activated C-kinase)” had an MFI of LACK (156-173)-A^d at '0' h in I-MΦ against N-MΦ in experiment [1] of 30 % less. In experiment [2], this substance returned a rate of decrease of IL-2 production by anti-LACK T cell hybridoma LMR7.5 cocultured with peptide pulsed, fixed I-MΦ (0 to 12 h after the pulse) of 17.1; a rate of decrease of IL-2 production by anti-LACK T cell hybridoma LMR7.5 cocultured with peptide pulsed, fixed I-MΦ-AL (0 to 12 h after the pulse) of 15.8; a rate of decrease of IL-2 production by anti-LACK T cell hybridoma LMR7.5 cocultured with peptide pulsed, fixed N-MΦ (0 to 12 h after the pulse) of 1.29.

Source of the values: PMC4877013.
